Experimental data published in publication PMC7321188.

Tests used:
Details in all cases: remark: other sources report otherwise
[1] = biological target: WT LRRK2-GFP (Leucine-Rich Repeat Kinase 2, wild type, GFP fusion) (UniProt Q5S007); experiment: fluorescence fluctuation spectroscopy (number and brightness) by TIRF microscopy; TIRF, near the plasma membrane of live differentiated SH-SY5Y cells; brightness normalised to monomeric GFP
[2] = biological target: G2019S LRRK2-GFP (Parkinson's disease mutant of Leucine-Rich Repeat Kinase 2, GFP fusion) (UniProt Q5S007); experiment: as above
[3] = biological target: G2019S LRRK2-GFP (Parkinson's disease mutant of Leucine-Rich Repeat Kinase 2, GFP fusion) (UniProt Q5S007); experiment: fluorescence fluctuation spectroscopy (number and brightness + photon counting histogram); two-photon confocal, cytosol of live differentiated SH-SY5Y cells at 37 °C; brightness normalised to monomeric GFP; LRRK2-GFP below 300 nM

Row | normalized brightness (sample over the monomer control) [1] | normalized brightness (sample over the monomer control) [2] | normalized brightness (sample over the monomer control) [3] | Substance
1 | 2.5 | – | – | WT LRRK2-GFP (Leucine-Rich Repeat Kinase 2, wild type, GFP fusion), Q5S007 1-2527
2 | – | 2.5 | 2.1 | G2019S LRRK2-GFP (Parkinson's disease mutant of Leucine-Rich Repeat Kinase 2, GFP fusion), Q5S007 1-2527
